A short description of data set [1]: Size-exclusion chromatography (solution properties, monomericity). Type of data set: physicochemical. On the procedure:
Size-exclusion chromatography (SEC) was performed using a TSKgel Super SW2000 column (TOSOH Biosciences, LLC), 4.6 mm×30 cm, on an Agilent 1100 HPLC system with UV detection at A214 nm and A280 nm and with fluorescence detection (excitation=280 nm, emission=350 nm). A buffer of 100 mM sodium sulfate, 100 mM sodium phosphate, 150 mM sodium chloride, pH 6.8 at a flow rate of 100 μL/min was employed. Samples (0.1 to 1 μg each) at a concentration of approximately 100 μg/mL were injected separately. Gel filtration standards (Bio-Rad Laboratories, Hercules, Calif.) were used for molecular weight calibration.
Background: SEC sorts molecules by how far they enter the pores of the column.

The target in a further data set is T1, human IGF-IR (Homo sapiens, UniProt P08069).
T1 construct: The extracellular domain of human IGF-IR (aa 1-932) was cloned into a mammalian expression vector; made in house
The experiment in a line: Surface plasmon resonance (BIAcore) binding kinetics and affinity on immobilized IGF-IR. On the procedure: The binding kinetics of fibronectin-based scaffold proteins binding proteins to the target was measured using BIAcore 2000 or 3000 biosensors (Pharmacia Biosensor). A capture assay was developed utilizing an IGF-IR-Fc fusion. A similar reagent had been described by Forbes et al. (Forbes et al. 2002, European J. Biochemistry, 269, 961-968). The extracellular domain of human IGF-IR (aa 1-932) was cloned into a mammalian expression vector containing the hinge and constant regions of human IgG1. Transient transfection of the plasmid produced a fusion protein, IGF-IR-Fc which was subsequently purified by Protein A chromatography and captured on Protein A immobilized on Biasensor CM5 chips by amine coupling. The kinetic analysis involved the capture of IGF-IR-Fc on Protein A followed by injection of the fibronectin-based scaffold protein in solution and regeneration of the Protein A surface by glycine pH 2.0. Sensorgrams were obtained at each concentration and were evaluated using a program Biaevaluation, BIA Evaluation 2.0 (BIAcore), to determine the rate constants ka (kon) and kd (koff) The dissociation constant, KD was calculated from the ratio of rate constants koff/kon. Typically, a concentration series (2 uM to 0 uM) of purified fibronectin-based scaffold protein was evaluated for binding to protein A captured human IGF-IR-Fc fusion protein.

Data set [2] is described as follows: Differential scanning calorimetry (thermal stability, Tm). Conditions: DSC. The format is physicochemical. On the procedure: Differential Scanning calorimetry (DSC) analysis of midscaled clones was performed to determine thermal stability. A 1 mg/ml solution of appropriate clone was scanned in a N-DSC II calorimeter (calorimetry Sciences Corp) by ramping the temperature from 5° C. to 95° C. at a rate of 1 degree per minute under 3 atm pressure. The data was analyzed vs. a control run of the appropriate buffer using a best fit using Orgin Software (OrginLab Corp).
In general terms: In DSC, transitions show as peaks or steps in heat flow.

A further data set concerns RH41 sarcoma xenografts. The experiment in a line: In vivo antitumor activity in RH41 sarcoma xenografts. To be noted: for % TGI: calculated on day 39; for LCK: gross log cell kill; for AVE weight change: Day 20 to Day 42. On the procedure:
*Tumor growth inhibition and probability values calculated on day 39. ^aVehicle was 80% PEG400, 20% dH2O. ^bVehicle was PBS. ^cAverage weight change for each group is the mean difference between weight at the start of treatment (Day 20) and after the end of treatment (Day 42). TVDT was calculated for a size of 500 mg Abbreviations used are as follows: po, oral route; ip, intraperitoneal route; LCK, gross log cell kill calculated as LCK=T−C/(3.32×TVDT) where T-C is the difference in time in days for the treated tumors (T) to reach a predetermined size (tumor target size) relative to the vehicle control group (C) divided by the tumor volume doubling time (TVDT) multiplied by 3.32.
Tumors were propagated in nude mice. Tumor passages occurred every four weeks for human RH41 xenografts. With regard to efficacy testing human tumor xenografts were implanted in nude mice. All tumor passages were subcutaneous (sc).
Antitumor activity was evaluated in terms of: a) cures, and for the murine tumor models, increases in lifespan reflected by the relative median survival time (MST) of treated (T) versus control (C) groups (i.e. % T/C values); and b) primary tumor growth inhibition determined by calculating the relative median times for T and C mice to grow tumors of a predetermined “target” size (1 gm for all sc tumor models described) and expressed as T-C values, in days. The definition of a cured mouse was one whose tumor was undetectable, or <35 mg, when assessed more than 10 tumor volume doubling times (TVDTs) post-treatment. The activity criterion for tumor inhibition/reduction was a statistically significant delay in primary tumor growth consistent with 1 gross log cell kill (LCK). The following formula was employed to calculate LCK: LCK=T−C/(3.32×TVDT)
Where, TVDT=median time (days) for control tumors to reach target size—median time (days) for control tumors to reach half the target size. […] The maximum tolerated dose (MTD) is defined as the dose level immediately […] which excessive toxicity (i.e. more than one death) occurred. […] Statistical evaluations of data were performed using Gehan's generalized Wilcoxon test (Gehan, Biometrika 52:203-223, 1965). Western Blot Analysis of 385A08-Fc

Another data set addresses T2, human insulin receptor (Homo sapiens, UniProt P06213).
T2 construct: purchased R&D Systems (Minneapolis, Minn.)
The experiment in a line: BIAcore binding to immobilized human insulin receptor. Conditions: percentage of signal for insulin binding at similar concentration. On the procedure:
One liter E. coli growths of selected optimized clones were prepared and the proteins were purified.
In brief, 60 ug/mL of IR diluted in acetate 4.5 was coupled/immobilized to a level of 8300 RU and 11.9 ug/mL of VEGF-R2-Fc diluted in acetate 5.0 was immobilized to a level of 9700 RU on flow cells 2 and 3. A blank reference surface was prepared on FC1. […] Fibronectin-based scaffold proteins were diluted to 10 uM in HBS-EP (10 mM Hepes 150 mM NaCl 3 mM EDTA 0.05% Surfactant P20) and injected at 20 uL/min for 3 minutes over the flow cells at 25 C and dissociation was observed over 10 mins.

The mark [3] stands for this setting: Table 4, optimized 218C04 clones.
Setting [4] is: Table 7, FG loop optimized 338A06 clones.

In general, Kd refers to the free concentration of one partner at which half of the binding sites on the other are occupied at equilibrium, for simple one-to-one binding. A higher Kd goes with weaker binding. Usually Tm stands for the temperature at which the thermal transition is half complete.

B1: 218C04 (protein)
chain: VSDVPRDLEVVAATPTSLLISWSPYLRVARYYRITYGETGGNSPVQEFTVPSSARTATISGLKPGVDYTITVYAVTPSNIIGRHYGPISINYRT
As to B1, in data set [1], the “solution behaviour by SEC (monomer / aggregation)” value is “virtually all monomeric”. Also, the Kd with human IGF-IR (clone in solution phase, immobilized IGF-IR) is 1.8 nM.

B2: 338A05 (protein)
chain: VSDVPRDLEVVAATPTSLLISWSDSLKVSRYYRITYGETGGNSPVQEFTVPKQYHTATISGLKPGVDYTITVYAVTPSNIIGRHYGPISINYRTHHHHHH
Take B2: the Tm in data set [2] (Table 3) is 68 °C. In addition, in the data set with human IGF-IR (setting [3]), the ka is listed as 1.3 1/M*s × 10^+6 and the kd was 3.3 1/s × 10^−4.

B3: 353F10 (protein)
chain: VSDVPRDLEVVAATPTSLLISWPTHYKVARYYRITYGETGGNSPVQEFTVPKHTYTATISGLKPGVDYTITVYAVTTTKGLRHYGPISINYRTHHHHHH
As to B3, the Tm in data set [2] (Table 3) came out at 59 °C. In the data set with human IGF-IR (setting [3]), the ka is 3.7 1/M*s × 10^+6 and the kd is given as 2.1 1/s × 10^−4.

B4: 354A10 (protein)
chain: VSDVPRDLEVVAATPTSLLISWSNRLVVKRYYRITYGETGGNSPVQEFTVPHQMKTATISGLKPGVDYTITVYAVTPGGYSGRNYGPISINYRTHHHHHH
Turning to B4, in data set [2] (Table 3), the Tm amounted to 46 °C. Further, in the data set with human IGF-IR (setting [3]), the ka was 1.1 1/M*s × 10^+6 and the kd is recorded as 1.8 1/s × 10^−4.

B5: 385A08-PEG40: 385A08 (SEQ ID NO: 203) coupled via Cys97 to a mono-functional branched 40 kDa PEG (conjugate)
chain: GVSDVPRDLEVVAATPTSLLISWSARLKVARYYRITYGETGGNSPVQEFTVPKNVYTATISGLKPGVDYTITVYAVTRFRDYQPISINYRTEIDKPCQ
modifications: branched 40 kDa PEG via Cys97
In the case of B5, in the data set on RH41 sarcoma xenografts (40 mg/kg, TIWx3, 20 ip), the “Outcome by (% TGI)” value was “A (A % TGI value of >50% was considered active)”, the “% TGI” value is 56% and the LCK is given as 0.4. In the data set with human IGF-IR, the “off-rate (kd) relative to unmodified 385A08” value is reported as “slightly increased” and the “slower on-rate (ka) relative to unmodified 385A08” value is “approximately 10 fold”. Moreover, in the data set with human IGF-IR (Table 10, PEGylated variants), the ka is given as 0.6 1/M*s × 10^+6 and the kd was 2.1 1/s × 10^−4.

B6: 353H09 (protein)
chain: VSDVPRDLEVVAATPTSLLISWSDKLKVQRYYRITYGETGGNSPVQEFTVPKHDRTATISGLKPGVDYTITVYAVTKMRDYRPISINYRTHHHHHH
Regarding B6, the Tm in data set [2] (Table 3) is 55 °C. Further, the “% IR Binding at 10 μM” value in the data set with human insulin receptor (Table 5) worked out at 0%. For the same molecule, in the data set with human IGF-IR (setting [3]), the ka is 3.8 1/M*s × 10^+6 and the kd is 2.2 1/s × 10^−4.

B7: 386A03 (protein)
chain: VSDVPRDLEVVAATPTSLLISWSARLKVARYYRITYGETGGNSPVQEFTVPKNVYTATISGLKPGVDYTITVYAVTNLRDYGPISINYRTHHHHHH
B7: the Tm in data set [2] (Table 9) was 62 °C. Also, in the data set with human insulin receptor (Table 8), the “% IR Binding at 10 μM” value was found to be 3%. In the data set with human IGF-IR (setting [4]), the ka is 5.2 1/M*s × 10^+6 and the kd was 4.6 1/s × 10^−4.

B8: 386F10 (protein)
chain: VSDVPRDLEVVAATPTSLLISWSARLKVARYYRITYGETGGNSPVQEFTVPKNVYTATISGLKPGVDYTITVYAVTLLRDYGPISINYRTHHHHHH
B8: in data set [2] (Table 9), the Tm worked out at 58 °C. In the data set with human insulin receptor (Table 8), the “% IR Binding at 10 μM” value stood at 3%. Further, in the data set with human IGF-IR (setting [4]), the ka is on record as 1.9 1/M*s × 10^+6 and the kd was 2.3 1/s × 10^−4.

B9: 385A08 (protein)
chain: VSDVPRDLEVVAATPTSLLISWSARLKVARYYRITYGETGGNSPVQEFTVPKNVYTATISGLKPGVDYTITVYAVTRFRDYQPISINYRTHHHHHH
Consider B9, for which the Tm in data set [2] (Table 9) amounted to 59 °C. For the same molecule, the “% IR Binding at 10 μM” value with human insulin receptor (Table 8) came out at 0%. For the same molecule, in the data set with RH41 sarcoma xenografts (20 mg/kg, 2qdx20, 28 ip), the AVE weight change came to 0.6 g, the “% TGI” value is on record as 33% and the LCK is given as 0.2. In addition, in the data set with RH41 sarcoma xenografts (40 mg/kg, 2qdx20, 28 ip), the AVE weight change is reported as 1.0 g, the “% TGI” value is 19% and the LCK is 0.2. Further, in the data set with human IGF-IR (setting [4]), the ka is 5.7 1/M*s × 10^+6 and the kd is 1.9 1/s × 10^−4. In the data set with human IGF-IR (Table 10, PEGylated variants), the ka is 6.9 1/M*s × 10^+6 and the kd is recorded as 1.6 1/s × 10^−4.

B10: 339A01 (protein)
chain: VSDVPRDLEVVAATPTSLLISWSTALKVQRYYRITYGETGGNSPVQEFTVPKHSHTATISGLKPGVDYTITVYAVTKMRDYRPISINYRTHHHHHH
On to B10, for which, in the data set with human IGF-IR (setting [3]), the ka was 1.2 1/M*s × 10^+6 and the kd is listed as 6.7 1/s × 10^−4.

B11: 387B01 (protein)
chain: VSDVPRDLEVVAATPTSLLISWSARLKVARYYRITYGETGGNSPVQEFTVPKNVYTATISGLKPGVDYTITVYAVTSLRDYGPISINYRTHHHHHH
As to B11, in data set [2] (Table 9), the Tm was 63 °C. Besides, the “% IR Binding at 10 μM” value with human insulin receptor (Table 8) was determined as 0%. Further, in the data set with human IGF-IR (setting [4]), the ka is listed as 6.5 1/M*s × 10^+6 and the kd is 4.4 1/s × 10^−4.

The values above are taken from patent US11149077B2, “Targeted therapeutics based on engineered proteins for tyrosine kinases receptors, including IGF-IR” (BRISTOL-MYERS SQUIBB COMPANY, priority 2006, dated 2021).
